Assay results published in paper PMC2935290.
Values belong to the binder of their own block, whether it stands above or below them.

Tests used:
Experiment in all cases: radioligand binding
[1] = target: HLA-DPB1*0201 (human (endogenous in JY))
[2] = target: HLA-DPB1*0101 (human (endogenous in VAVY))
[3] = target: HLA-DPB1*0501 (human (endogenous in HO301))

other [1]: 0.89
B1: … A6I (peptide)
peptide: EKKYFIATQFEPLAA

other [2]: 2
B2: … Y4D (peptide)
peptide: EKKDFAATQFEPLAA

other [2]: 6
other [3]: 2.1
B3: … A6Y (peptide)
peptide: EKKYFYATQFEPLAA

other [3]: 2
B4: … E11V (peptide)
peptide: EKKYFAATQFVPLAA

other [1]: 2
B5: … Q9S (peptide)
peptide: EKKYFAATSFEPLAA

other [3]: 2.1
other [1]: 1.8
B6: … E11I (peptide)
peptide: EKKYFAATQFIPLAA

other [2]: 2.1
other [1]: 1
B7: … A6T (peptide)
peptide: EKKYFTATQFEPLAA

other [3]: 1
B8: … E11Q (peptide)
peptide: EKKYFAATQFQPLAA

other [2]: 0.2
B9: … T8D (peptide)
peptide: EKKYFAADQFEPLAA

other [2]: 1
B10: … Q9H (peptide)
peptide: EKKYFAATHFEPLAA

other [2]: 1
B11: … Q9P (peptide)
peptide: EKKYFAATPFEPLAA

other [3]: 0.13
B12: … E11W (peptide)
peptide: EKKYFAATQFWPLAA

other [2]: 3.4
B13: … T8N (peptide)
peptide: EKKYFAANQFEPLAA

other [2]: 1
other [1]: 1.8
B14: … Y4Q (peptide)
peptide: EKKQFAATQFEPLAA

other [3]: 1.8
B15: … A6K (peptide)
peptide: EKKYFKATQFEPLAA

other [3]: 3.4
B16: … Q9V (peptide)
peptide: EKKYFAATVFEPLAA

other [1]: 0.38
B17: … A6C (peptide)
peptide: EKKYFCATQFEPLAA

other [2]: 2.1
B18: … A6F (peptide)
peptide: EKKYFFATQFEPLAA

other [1]: 2
B19: … E11L (peptide)
peptide: EKKYFAATQFLPLAA

other [3]: 0.2
B20: … T8Y (peptide)
peptide: EKKYFAAYQFEPLAA

other [2]: 0.18
B21: … A6P (peptide)
peptide: EKKYFPATQFEPLAA

other [2]: 1.8
B22: … Q9R (peptide)
peptide: EKKYFAATRFEPLAA

other [3]: 0.13
other [1]: 0.36
B23: … A6D (peptide)
peptide: EKKYFDATQFEPLAA

other [2]: 0.066
other [1]: 0.2
B24: … Y4A (peptide)
peptide: EKKAFAATQFEPLAA

other [3]: 0.13
B25: … T8W (peptide)
peptide: EKKYFAAWQFEPLAA

other [3]: 1
B26: … Q9A (peptide)
peptide: EKKYFAATAFEPLAA

other [3]: 1
B27: … E11R (peptide)
peptide: EKKYFAATQFRPLAA

other [2]: 1.8
B28: … Q9C (peptide)
peptide: EKKYFAATCFEPLAA

other [1]: 0.41
B29: … A6E (peptide)
peptide: EKKYFEATQFEPLAA

other [3]: 0.95
B30: … Q9K (peptide)
peptide: EKKYFAATKFEPLAA

other [3]: 0.36
B31: … E11N (peptide)
peptide: EKKYFAATQFNPLAA

other [3]: 13
B32: … Q9F (peptide)
peptide: EKKYFAATFFEPLAA
